In PMC8579703:
pKd: −log10 of the molar value.

Biological target: neonatal Fc Receptor, FcRn (UniProt P55899)
Assay: SPR

Row | Substance | pKd
1 | ACE2-IgG4-Fc fusion construct 1 (ACE2 Q18-G732 wildtype fused to IgG4-Fc S228P) (from UniProt Q9BYF1 18-732) | 5.54
2 | ACE2-IgG4-Fc fusion construct 3 (ACE2 Q18-G732 H374N/H378N fused to IgG4-Fc S228P) (from UniProt Q9BYF1 18-732) | 5.41
